Test results as given in patent publication US20250333512A1.

Key:
Assay in all cases: cell-based or functional assay
Design in all cases: AUC (IL-2 ELISA): unit not given beside the values
[1] = biological target: chimeric receptor containing a rhesus macaque FcγRIIB ectodomain and the CD3ζ intracellular signaling domain (rhesus macaque)
[2] = biological target: chimeric receptor containing a rhesus macaque FcγRI ectodomain and the CD3ζ intracellular signaling domain (rhesus macaque)
[3] = biological target: chimeric receptor containing a rhesus macaque FcγRIIA ectodomain and the CD3ζ intracellular signaling domain (rhesus macaque)
[4] = biological target: chimeric receptor containing a rhesus macaque FcγRIII ectodomain and the CD3ζ intracellular signaling domain (rhesus macaque) (UniProt A3RFZ7)
Chain of chimeric receptor containing a rhesus macaque FcγRIII ectodomain and the CD3ζ intracellular signaling domain (rhesus macaque) (A3RFZ7 whole entry, change not shown, the tested form may be a part): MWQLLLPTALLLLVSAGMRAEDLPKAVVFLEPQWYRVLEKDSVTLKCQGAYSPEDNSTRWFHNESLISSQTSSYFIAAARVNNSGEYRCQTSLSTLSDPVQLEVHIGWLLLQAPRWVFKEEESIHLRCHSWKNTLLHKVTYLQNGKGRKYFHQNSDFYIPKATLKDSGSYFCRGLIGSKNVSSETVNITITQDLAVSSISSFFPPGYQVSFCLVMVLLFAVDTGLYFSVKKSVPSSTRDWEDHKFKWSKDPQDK

Chain of PGT121 (Mammalian) (antibody) (heavy): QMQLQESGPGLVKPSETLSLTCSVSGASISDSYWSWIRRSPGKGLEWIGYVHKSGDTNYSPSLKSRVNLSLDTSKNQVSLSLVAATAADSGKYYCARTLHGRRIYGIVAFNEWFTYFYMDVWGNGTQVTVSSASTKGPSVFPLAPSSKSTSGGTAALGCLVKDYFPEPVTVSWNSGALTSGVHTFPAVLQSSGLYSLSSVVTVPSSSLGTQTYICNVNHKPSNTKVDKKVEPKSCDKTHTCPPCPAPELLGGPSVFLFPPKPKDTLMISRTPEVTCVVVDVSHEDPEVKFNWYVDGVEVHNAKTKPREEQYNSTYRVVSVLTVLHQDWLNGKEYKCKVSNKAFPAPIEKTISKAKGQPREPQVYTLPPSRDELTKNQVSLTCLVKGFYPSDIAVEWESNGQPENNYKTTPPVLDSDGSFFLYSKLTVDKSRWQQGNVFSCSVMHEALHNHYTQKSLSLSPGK
Chain of PGT121 (Mammalian) (antibody) (light): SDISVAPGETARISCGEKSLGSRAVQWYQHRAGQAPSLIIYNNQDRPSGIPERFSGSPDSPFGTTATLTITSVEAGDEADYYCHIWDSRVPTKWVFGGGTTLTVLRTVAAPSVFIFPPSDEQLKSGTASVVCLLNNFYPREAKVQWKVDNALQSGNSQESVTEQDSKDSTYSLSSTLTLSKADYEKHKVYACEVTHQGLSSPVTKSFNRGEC

AUC (IL-2 ELISA) [1]	EC50 (IL-2 ELISA) [1] [µg/mL]	AUC (IL-2 ELISA) [2]	EC50 (IL-2 ELISA) [2] [µg/mL]	AUC (IL-2 ELISA) [3]	EC50 (IL-2 ELISA) [3] [µg/mL]	AUC (IL-2 ELISA) [4]	EC50 (IL-2 ELISA) [4] [µg/mL]	Substance
0.4	> 50	4.46	0.548	0.401	> 50	0.934	3.57	Nb PGT121-KDEL (antibody)
0.256	> 50	3.99	0.735	0.246	> 50	0.226	> 50	Nb PGT121-YTE (antibody)
0.355	> 50	4.69	0.419	0.334	> 50	0.37	> 50	Nb VRC01-KDEL (antibody)
0.636	3.58	3.55	0.619	3.74	1.72			PGT121 (Mammalian) (antibody)
1.26	2.1	4.14	0.326	4.15	0.722	1.46	1.21	VRC07-523 (Mammalian) (antibody)
1.36	1.95	4.37	0.303	4.5	0.853	1.82	0.637	VRC07-523-LS(Mammalian) (antibody)
